Reference: paper PMC6628828

Experiments:
[1] = target: glutathione transferase P1-1 C47S mutant (human); assay: ESI-MS
[2] = target: glutathione transferase P1-1 C47S mutant (human); assay: cross-linking
[3] = target: glutathione transferase P1-1 C101S mutant (human); assay: ESI-MS
[4] = target: glutathione transferase P1-1 C101S mutant (human); assay: cross-linking

Substance	relative abundance of peak C (C47S dimer) [1] [%]	relative abundance of peak E (C47S dimer + 2×[Pt(NH3)]) [2] [%]	relative abundance of peak F (C47S dimer + 2×[PtCl2] + [Pt(NH3)2]) [2] [%]	relative abundance of peak C (C101S dimer) [3] [%]	relative abundance of peak L (C101S dimer + 2×MeOH) [4] [%]
glutathione transferase P1-1 C47S mutant (enzyme)	5	54	24		
glutathione transferase P1-1 C101S mutant (enzyme)				5	18
